Target: T1, CD19 (human, UniProt P15391 20-556)
T1 construct: whole, on cells; also called CD19 on NALM6, Raji, K562-CD19 and K562-CD19/CD22 cells
T1 sequence (looked up): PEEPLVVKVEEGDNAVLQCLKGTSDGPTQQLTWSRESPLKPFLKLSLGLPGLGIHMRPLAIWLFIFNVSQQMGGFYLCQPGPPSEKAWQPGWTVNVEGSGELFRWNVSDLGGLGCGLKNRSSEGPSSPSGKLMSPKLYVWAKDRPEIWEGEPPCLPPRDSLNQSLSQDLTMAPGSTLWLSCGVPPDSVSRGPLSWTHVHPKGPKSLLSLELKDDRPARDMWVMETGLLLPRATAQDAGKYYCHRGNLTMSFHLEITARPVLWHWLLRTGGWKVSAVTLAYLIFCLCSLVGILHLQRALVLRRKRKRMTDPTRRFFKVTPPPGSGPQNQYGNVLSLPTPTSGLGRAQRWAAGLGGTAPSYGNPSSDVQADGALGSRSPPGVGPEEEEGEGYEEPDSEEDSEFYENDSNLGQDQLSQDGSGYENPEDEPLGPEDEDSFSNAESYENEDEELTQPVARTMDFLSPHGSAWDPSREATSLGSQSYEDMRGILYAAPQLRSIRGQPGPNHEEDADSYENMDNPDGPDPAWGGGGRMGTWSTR
Assay: told from antigen-specific IFN-γ release of transduced T cells on CD19+ and/or CD22+ cell lines
Source text: Primary T cells were mock-transduced or transduced with a lentiviral vector encoding the anti-CD19 anti-CD22 caTCR-7-2a construct. The transduced T cells were mixed with K562 (CD19 CD22 double negative), K562-CD22 (K562 transduced with CD22), K562-CD19 (K562 transduced with CD19), Raji (which expresses both CD19 and CD22), or Raji CD19 K/O (Raji with CD19 knocked out) cells at an effector-to-target ratio of 2.5:1. T-cells secrete IFN-γ when activated by TCR engagement with target ligand. The cytokine release levels of IFN-γ were measured and used as an indicator of the receptor's signaling potential (the higher levels, the higher the receptor's signaling potential and cytotoxic T cell activity). Cytokine concentrations were measured after 16 hours of co-culture using the Magpix multiplex system (Luminex) with the Bio-plex Pro Human Cytokine 8-plex Assay (BioRad).
T cells expressing the anti-CD19 anti-CD22 caTCR-7-2a construct specifically activated IFN-γ secretion when incubated with K562 expressing either CD19 or CD22 antigens. […] In vitro killing

binding result: binds
B1: anti-CD19 anti-CD22 caTCR-7-2a (other)
chain 1: DIQLTQSPSSLSTSVGDRVTITCQASHDIRNYLNWYQQKPGKAPNLLIYAASNLQTGVPSRFSGRGSGTDFTLTISSLQPEDIATYYCQQYDGLPLTFGQGTRLEIKRGGGGSEVQLVQSGAEVKKPGESLKISCKGSGYSFTSYWIGWVRQMPGKGLEWMGIIYPGDSDTRYSPSFQGQVTISADKSISTAYLQWSSLKASDTAMYYCARQVWGWQGGMYPRSNWWYNLDSWGQGTLVTVSSASTKGPSVFPLAPSSKSTSGGTAALGCLVKDYFPEPVTVSWNSGALTSGVHTFPAVLQSSGLYSLSSVVTVPSSSLGTQTYICNVNHKPSNTKVDKRVEPKSCEVKTDSTDHVKPKETENTKQPSKSCHKPKAIVHTEKVNMMSLTVLGLRMLFAKTVAVNFLLTAKLFFL
chain 2: QVQLVESGGGLVQPGGSLRLSCAASGFTFSNYAMSWVRQAPGKGLEWVSSISGSGGSTYYADSVKGRFTISRDTSKNTLYLQMNSLRAEDTAVYYCARYGSAAWMDSWGQGTLVTVSSGGGGSLPVLTQPPSVSVAPGKTARITCGGNNIGSKSVHWYQQKPGQAPVLVVYDDSDRPSGIPERFSGSNSGNTATLTISRVEAGDEADYYCQVWDSSSDYVVFGGGTKLTVLGQPKANPTVTLFPPSSEELQANKATLVCLISDFYPGAVTVAWKADGSPVKAGVETTKPSKQSNNKYAASSYLSLTPEQWKSHRSYSCQVTHEGSTVEKTVAPTECSPIKTDVITMDPKDNCSKDANDTLLLQLTNTSAYYMYLLLLLKSVVYFAIITCCLLRRTAFCCNGEKS
notes: Bispecific chimeric antibody-TCR construct expressed on transduced primary T cells

Reference: US20210101954A1 (EUREKA THERAPEUTICS, published 2021)
